Data set [1] concerns Saccharomyces cerevisiae. As to the kind of experiment: protein stability index of tFT-peptide fusion (C-terminal peptide) (PSI (0-1 scale)); higher = more stable (slower turnover). Here is the method: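 MPS profiling in S. cerevisiae of the tFT-X12 degron library: putative degron peptides plus stable controls, 12 aa, fused to the C-terminus of a sfGFP-mCherry timer. Cells are FACS-sorted into 8 mCherry/sfGFP bins and deep-sequenced. PSI runs from 0 (unstable) to 1 (stable). Backgrounds are wild type, das1Δ and doa10Δ at 30 °C, and wild type, das1Δ, cdc34-1 and cdc53-1 at 37 °C; 2-3 technical replicates each.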

Data set [2] deals with Saccharomyces cerevisiae. The description is as above. Particulars: genetic background: wild type; temperature: 30 C.
The mark [3] stands for this setting: genetic background: cdc34-1, temperature: 37 C.
[4] abbreviates: genetic background: cdc53-1, temperature: 37 C.
Setting [5] is: genetic background: das1 deletion, temperature: 30 C.
The mark [6] stands for this setting: genetic background: das1 deletion, temperature: 37 C.
The mark [7] stands for this setting: genetic background: doa10 deletion, temperature: 30 C.
The mark [8] stands for this setting: genetic background: wild type, temperature: 30 C.
Setting [9] is: genetic background: wild type, temperature: 37 C.

Drawing on the supplement of paper PMC10724198, this text covers protein stability index for 17 sequences.

± gives the standard deviation of the averaged measurements.
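Further: PSI is a weighted mean of sequencing reads over stability bins, variants kept only with over 10 reads, mCherry proximal and sfGFP distal, peptide attached via GGGS linker.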

For GVSLRVFVVSVC, the protein stability index with Saccharomyces cerevisiae [1] (setting [3]) turned out to be 0.137 ± 0.02; in the data set on Saccharomyces cerevisiae [1] (setting [4]), 0.162 ± 0.015; with Saccharomyces cerevisiae [1] (setting [5]), 0.219 ± 0.02; with Saccharomyces cerevisiae [1] (setting [6]), 0.316 ± 0.0044; in the data set with Saccharomyces cerevisiae [1] (setting [7]), 0.108 ± 0.005; in the data set with Saccharomyces cerevisiae [1] (setting [8]), 0.122 ± 0.018. In addition, the protein stability index in the data set on Saccharomyces cerevisiae [1] (setting [9]) came out at 0.142 ± 0.0047; in the data set with Saccharomyces cerevisiae [2], 0.212 ± 0.053.
GVVWPLGWVWVE: the protein stability index in the data set on Saccharomyces cerevisiae [1] (setting [3]) came out at 0.699 ± 0.016; with Saccharomyces cerevisiae [1] (setting [4]), 0.7315 ± 0.0022; with Saccharomyces cerevisiae [1] (setting [5]) it was 0.614 ± 0.012; in the data set on Saccharomyces cerevisiae [1] (setting [6]) it was 0.7383 ± 0.0066; with Saccharomyces cerevisiae [1] (setting [7]), 0.368 ± 0.014; in the data set on Saccharomyces cerevisiae [1] (setting [8]) it was 0.421 ± 0.025. Further, the figures for the protein stability index in the data set with Saccharomyces cerevisiae [1] (setting [9]) and in the data set on Saccharomyces cerevisiae [2] were 0.615 ± 0.0074 and 0.527 ± 0.05, respectively.
For the sequence GWRFCVFIYVHR, the protein stability index with Saccharomyces cerevisiae [1] (setting [3]) came out at 0.0703 ± 0.011; with Saccharomyces cerevisiae [1] (setting [4]), 0.0688 ± 0.0038; with Saccharomyces cerevisiae [1] (setting [5]), 0.115 ± 0.033; in the data set with Saccharomyces cerevisiae [1] (setting [6]), 0.196 ± 0.012; with Saccharomyces cerevisiae [1] (setting [7]) it was 0.213 ± 0.018; in the data set on Saccharomyces cerevisiae [1] (setting [8]) it was 0.107 ± 0.015. For the same sequence, the protein stability index is 0.186 ± 0.0085 in the data set on Saccharomyces cerevisiae [1] (setting [9]) and 0.179 ± 0.042 with Saccharomyces cerevisiae [2].
With GWVVVVCGVCCG, the protein stability index in the data set on Saccharomyces cerevisiae [1] (setting [3]) stood at 0.178 ± 0.0072; in the data set with Saccharomyces cerevisiae [1] (setting [4]) it was 0.22 ± 0.033; in the data set with Saccharomyces cerevisiae [1] (setting [5]) it was 0.208 ± 0.026; with Saccharomyces cerevisiae [1] (setting [6]), 0.307 ± 0.016; in the data set with Saccharomyces cerevisiae [1] (setting [7]), 0.167 ± 0.0077; in the data set with Saccharomyces cerevisiae [1] (setting [8]), 0.196 ± 0.024. The results for the protein stability index in the data set on Saccharomyces cerevisiae [1] (setting [9]) and in the data set with Saccharomyces cerevisiae [2] were 0.28 ± 0.012 and 0.285 ± 0.011, respectively.
Take GYSMPVSFFFAL: the protein stability index in the data set on Saccharomyces cerevisiae [1] (setting [3]) was 0.669 ± 0.057; with Saccharomyces cerevisiae [1] (setting [4]) it was 0.779 ± 0.012; with Saccharomyces cerevisiae [1] (setting [5]), 0.616 ± 0.017; with Saccharomyces cerevisiae [1] (setting [6]) it was 0.745 ± 0.0082; in the data set on Saccharomyces cerevisiae [1] (setting [7]), 0.201 ± 0.011; with Saccharomyces cerevisiae [1] (setting [8]), 0.24 ± 0.017. Moreover, the protein stability index in the data set on Saccharomyces cerevisiae [1] (setting [9]) amounted to 0.453 ± 0.014; in the data set on Saccharomyces cerevisiae [2], 0.356 ± 0.0092.
On to HFASPPAPRSNL, for which the protein stability index in the data set on Saccharomyces cerevisiae [1] (setting [3]) stood at 0.799 ± 0.051; in the data set on Saccharomyces cerevisiae [1] (setting [4]) it was 0.819 ± 0.023; in the data set on Saccharomyces cerevisiae [1] (setting [5]) it was 0.762 ± 0.03; in the data set on Saccharomyces cerevisiae [1] (setting [6]), 0.81 ± 0.016; with Saccharomyces cerevisiae [1] (setting [7]), 0.785 ± 0.032; with Saccharomyces cerevisiae [1] (setting [8]), 0.785 ± 0.032. Besides, the results for the protein stability index in the data set with Saccharomyces cerevisiae [1] (setting [9]) and in the data set with Saccharomyces cerevisiae [2] were 0.792 ± 0.014 and 0.765 ± 0.0023, respectively.
Take HFLLAFMLCFGQ: the protein stability index came out at 0.4512 ± 0.0045 in the data set with Saccharomyces cerevisiae [1] (setting [3]); 0.476 ± 0.0097 in the data set on Saccharomyces cerevisiae [1] (setting [4]); 0.359 ± 0.039 in the data set on Saccharomyces cerevisiae [1] (setting [5]); 0.504 ± 0.0076 with Saccharomyces cerevisiae [1] (setting [6]); 0.336 ± 0.011 in the data set with Saccharomyces cerevisiae [1] (setting [7]); 0.356 ± 0.021 with Saccharomyces cerevisiae [1] (setting [8]). In addition, the protein stability index in the data set with Saccharomyces cerevisiae [1] (setting [9]) is 0.476 ± 0.024; in the data set with Saccharomyces cerevisiae [2], 0.466 ± 0.044.
Regarding HLILWLFFVIVF, the protein stability index in the data set with Saccharomyces cerevisiae [1] (setting [3]) was determined as 0.237 ± 0.012; in the data set on Saccharomyces cerevisiae [1] (setting [4]) it was 0.193 ± 0.047; with Saccharomyces cerevisiae [1] (setting [5]), 0.216 ± 0.024; in the data set with Saccharomyces cerevisiae [1] (setting [6]) it was 0.333 ± 0.0038; with Saccharomyces cerevisiae [1] (setting [7]), 0.237 ± 0.012; in the data set with Saccharomyces cerevisiae [1] (setting [8]), 0.186 ± 0.012. In addition, the values for the protein stability index in the data set on Saccharomyces cerevisiae [1] (setting [9]) and in the data set with Saccharomyces cerevisiae [2] were 0.271 ± 0.0074 and 0.304 ± 0.23, respectively.
With HLRWYITGIVWF, the protein stability index stood at 0.4885 ± 0.0024 in the data set with Saccharomyces cerevisiae [1] (setting [3]); 0.413 ± 0.11 in the data set with Saccharomyces cerevisiae [1] (setting [5]); 0.671 ± 0.17 in the data set on Saccharomyces cerevisiae [1] (setting [6]); 0.311 ± 0.019 in the data set with Saccharomyces cerevisiae [1] (setting [7]); 0.359 ± 0.087 with Saccharomyces cerevisiae [1] (setting [8]); 0.543 ± 0.017 in the data set on Saccharomyces cerevisiae [1] (setting [9]). The same sequence displayed a protein stability index in the data set with Saccharomyces cerevisiae [2] of 0.4216 ± 0.00048.
HPRPRPPPLPPP: the protein stability index in the data set on Saccharomyces cerevisiae [1] (setting [3]) stood at 0.4633 ± 0.00058; in the data set with Saccharomyces cerevisiae [1] (setting [4]), 0.546 ± 0.019; in the data set with Saccharomyces cerevisiae [1] (setting [5]), 0.504 ± 0.006; in the data set on Saccharomyces cerevisiae [1] (setting [6]), 0.523 ± 0.021; with Saccharomyces cerevisiae [1] (setting [7]), 0.544 ± 0.0083; in the data set on Saccharomyces cerevisiae [1] (setting [8]), 0.487 ± 0.03. The protein stability index came out at 0.4943 ± 0.0044 in the data set on Saccharomyces cerevisiae [1] (setting [9]) and 0.508 ± 0.032 in the data set on Saccharomyces cerevisiae [2].
On to HRARILLIRICP, for which the protein stability index in the data set with Saccharomyces cerevisiae [1] (setting [3]) stood at 0.486 ± 0.024; with Saccharomyces cerevisiae [1] (setting [4]), 0.517 ± 0.011; with Saccharomyces cerevisiae [1] (setting [5]) it was 0.411 ± 0.024; with Saccharomyces cerevisiae [1] (setting [6]), 0.64 ± 0.019; in the data set with Saccharomyces cerevisiae [1] (setting [7]), 0.5034 ± 0.0046; in the data set with Saccharomyces cerevisiae [1] (setting [8]) it was 0.42 ± 0.032. Also, the protein stability index in the data set with Saccharomyces cerevisiae [1] (setting [9]) was found to be 0.585 ± 0.029; with Saccharomyces cerevisiae [2], 0.415 ± 0.017.
Take HRFCAPSLSASD: the protein stability index in the data set on Saccharomyces cerevisiae [1] (setting [3]) turned out to be 0.675 ± 0.007; in the data set with Saccharomyces cerevisiae [1] (setting [4]) it was 0.722 ± 0.013; with Saccharomyces cerevisiae [1] (setting [5]) it was 0.6628 ± 0.0047; in the data set on Saccharomyces cerevisiae [1] (setting [6]) it was 0.7288 ± 0.0054; in the data set on Saccharomyces cerevisiae [1] (setting [7]), 0.665 ± 0.024; in the data set on Saccharomyces cerevisiae [1] (setting [8]) it was 0.666 ± 0.012. Also, the protein stability index in the data set on Saccharomyces cerevisiae [1] (setting [9]) stood at 0.696 ± 0.0086; in the data set on Saccharomyces cerevisiae [2], 0.697 ± 0.062.
For HVLALIFLYIPD, the protein stability index with Saccharomyces cerevisiae [1] (setting [3]) turned out to be 0.43 ± 0.045; with Saccharomyces cerevisiae [1] (setting [4]) it was 0.55 ± 0.032; in the data set on Saccharomyces cerevisiae [1] (setting [5]), 0.33 ± 0.037; in the data set with Saccharomyces cerevisiae [1] (setting [6]), 0.5422 ± 0.0044; in the data set with Saccharomyces cerevisiae [1] (setting [7]), 0.317 ± 0.021; in the data set on Saccharomyces cerevisiae [1] (setting [8]), 0.355 ± 0.019. The results for the protein stability index with Saccharomyces cerevisiae [1] (setting [9]) and in the data set on Saccharomyces cerevisiae [2] were 0.501 ± 0.0067 and 0.4163 ± 0.0012, respectively.
For HWVRLSSLAFVS, the protein stability index in the data set with Saccharomyces cerevisiae [1] (setting [3]) stood at 0.2245 ± 0.0018; in the data set on Saccharomyces cerevisiae [1] (setting [4]) it was 0.289 ± 0.011; in the data set on Saccharomyces cerevisiae [1] (setting [5]), 0.289 ± 0.036; in the data set on Saccharomyces cerevisiae [1] (setting [6]), 0.233 ± 0.0082; in the data set on Saccharomyces cerevisiae [1] (setting [7]), 0.202 ± 0.022; in the data set with Saccharomyces cerevisiae [1] (setting [8]), 0.183 ± 0.014. Moreover, the values for the protein stability index in the data set with Saccharomyces cerevisiae [1] (setting [9]) and with Saccharomyces cerevisiae [2] were 0.1895 ± 0.00075 and 0.176 ± 0.01, respectively.
Consider IACISCLLCVVV, for which the protein stability index worked out at 0.608 ± 0.042 with Saccharomyces cerevisiae [1] (setting [3]); 0.649 ± 0.038 with Saccharomyces cerevisiae [1] (setting [4]); 0.479 ± 0.025 in the data set on Saccharomyces cerevisiae [1] (setting [5]); 0.607 ± 0.017 in the data set with Saccharomyces cerevisiae [1] (setting [6]); 0.479 ± 0.022 with Saccharomyces cerevisiae [1] (setting [7]); 0.504 ± 0.0075 with Saccharomyces cerevisiae [1] (setting [8]). Moreover, the protein stability index in the data set with Saccharomyces cerevisiae [1] (setting [9]) was 0.589 ± 0.0073; with Saccharomyces cerevisiae [2] it was 0.508 ± 0.015.
For IEVACLLTAFCD, the protein stability index with Saccharomyces cerevisiae [1] (setting [3]) came to 0.22 ± 0.026; in the data set on Saccharomyces cerevisiae [1] (setting [4]), 0.262 ± 0.0062; in the data set on Saccharomyces cerevisiae [1] (setting [5]), 0.257 ± 0.028; in the data set with Saccharomyces cerevisiae [1] (setting [6]) it was 0.225 ± 0.0027; in the data set on Saccharomyces cerevisiae [1] (setting [7]), 0.282 ± 0.043; in the data set on Saccharomyces cerevisiae [1] (setting [8]), 0.266 ± 0.033. Besides, the figures for the protein stability index with Saccharomyces cerevisiae [1] (setting [9]) and in the data set with Saccharomyces cerevisiae [2] were 0.209 ± 0.0052 and 0.251 ± 0.027, respectively.
IFCRCNSTVLLI: the protein stability index in the data set on Saccharomyces cerevisiae [1] (setting [3]) stood at 0.547 ± 0.035; in the data set with Saccharomyces cerevisiae [1] (setting [4]) it was 0.633 ± 0.013; in the data set on Saccharomyces cerevisiae [1] (setting [5]), 0.483 ± 0.021; with Saccharomyces cerevisiae [1] (setting [6]), 0.5959 ± 0.0016; with Saccharomyces cerevisiae [1] (setting [7]), 0.365 ± 0.055; with Saccharomyces cerevisiae [1] (setting [8]), 0.37 ± 0.018. Further, the protein stability index was found to be 0.522 ± 0.021 in the data set with Saccharomyces cerevisiae [1] (setting [9]) and 0.451 ± 0.024 in the data set on Saccharomyces cerevisiae [2].
